# According to the RNAGym collection of RNA variant scans (doi:10.7554/elife.90254):
# B1: LINE1-mini (parent)
# chain: GGCAGAGCUCAACACAGCGUGGCAAAGUGGCUGUGGCUAGACUGCC
# Variants of: B1
# Assay: self-cleavage, relative activity (ratio to wild type); higher = more cleavage; in vitro, sequencing; the parent is a self-cleaving ribozyme
row,Variant,self-cleavage
1,G2U A11U,0.03
2,G2U A11G,0.02
3,G2C G36C,0.04
4,G2C G36A,0.25
5,G2C G36U,0.1
6,G2U A4G,0.12
7,G2U A4C,0.07
8,G2U A4U,0.08
9,G2C A14U,0.08
10,G2C A14C,0.06
11,G2C A14G,0.03
12,G2C A12G,0.07
13,G2C A12U,0.12
14,G2C A12C,0.02
15,G2U A41C,0.02
16,G2U A41G,0.09
17,G2U A41U,0.08
18,G2A U9A,0.31
19,G2A U9C,0.08
20,G2A U9G,0.25
21,C3A A12C,0.07
22,C3A A12G,0.12
23,C3A A12U,0.57
24,G2C G27U,0.14

row,Variant,self-cleavage
1,G2C G27C,0.12
2,G2C G27A,0.13
3,G2U C45G,0.23
4,G2U C45A,0.45
5,G2U C45U,0.11
6,G2U A39U,0.04
7,G2U A39G,0.04
8,G2U A39C,0.03
9,G2C C42G,0.03
10,G2C C42U,0.07
11,G2C C42A,0.08
12,G2C,0.13
13,G2U,0.09
14,G2U A25U,0.08
15,G2U A25G,0.03
16,G2U A25C,0.05
17,G2C U20A,0.06
18,G2C U20G,0.05
19,G2C U20C,0.08
20,C3A A41C,0.15
21,G2C G17U,0.06
22,G2C G17A,0.08
23,G2C G17C,0.05
24,G2U A26G,0.13

row,Variant,self-cleavage
1,G2U A26C,0.09
2,G2U A26U,0.11
3,G2U G7U,0.05
4,G2U G7C,0.04
5,G2U G7A,0.07
6,G2U C23A,0.16
7,G2U C23U,0.15
8,G2U C23G,0.04
9,G2C A25U,0.08
10,G2C A25G,0.06
11,G2C A25C,0.15
12,G2C C46U,0.07
13,G2C C46A,0.09
14,G2C C46G,0.16
15,G2U C8A,0.07
16,G2U C8G,0.04
17,G2U C8U,0.1
18,G2C C18G,0.05
19,G2C C18A,0.06
20,G2C C18U,0.09
21,G2C A26U,0.09
22,G2C A26C,0.11
23,G2C A26G,0.11
24,G2A G36U,0.19

row,Variant,self-cleavage
1,G2A G36C,0.28
2,G2A G36A,0.69
3,C3A A16U,0.13
4,C3A A16C,0.12
5,C3A A16G,0.22
6,G2C C8G,0.08
7,G2C C8U,0.18
8,G2C C8A,0.17
9,G2C U28G,0.05
10,G2C U28C,0.09
11,G2C U28A,0.23
12,C3A A14C,0.16
13,C3A A14G,0.61
14,C3A A14U,0.27
15,G2C C37U,0.06
16,G2C C37G,0.05
17,G2C C37A,0.06
18,G2C G40U,0.13
19,G2C G40C,0.07
20,G2C G40A,0.09
21,G2C A16G,0.09
22,G2C A16C,0.02
23,G2C A16U,0.04
24,G2U C18U,0.05

row,Variant,self-cleavage
1,G2U C18G,0.03
2,G2U C18A,0.03
3,G2U C3G,0.26
4,G2U C3A,0.48
5,G2U C3U,0.37
6,G2U G19A,0.08
7,G2U G19C,0.03
8,G2U G19U,0.05
9,G2C G30C,0.23
10,G2C G30A,0.24
11,G2C G30U,0.29
12,C3A A11U,0.06
13,C3A A11C,0.04
14,C3A A11G,0.06
15,G2U A12C,0.02
16,G2U A12U,0.04
17,G2U A12G,0.02
18,G2U G33A,0.03
19,G2U G33C,0.02
20,G2U G33U,0.04
21,C3A A25C,0.41
22,C3A A25U,0.79
23,C3A A25G,0.29
24,G2C A39G,0.09

row,Variant,self-cleavage
1,G2C A39C,0.09
2,G2C A39U,0.1
3,G2U C46U,0.06
4,G2U C46G,0.1
5,G2U C46A,0.09
6,G2U G5A,0.06
7,G2U G5C,0.04
8,G2U G5U,0.02
9,G2C G7U,0.28
10,G2C G7C,0.14
11,G2C G7A,0.06
12,G2C C15U,0.11
13,G2C C15A,0.06
14,G2C C15G,0.02
15,G2C G29A,0.1
16,G2C G29C,0.06
17,G2C G29U,0.19
18,G2U C10A,0.02
19,G2U C10G,0.02
20,G2U C10U,0.03
21,G2U C31U,0.02
22,G2U C31A,0.04
23,G2U C31G,0.03
24,G2U G36C,0.05

row,Variant,self-cleavage
1,G2U G36A,0.05
2,G2U G36U,0.04
3,G2A U28C,0.64
4,G2A U28G,0.48
5,G2A U28A,0.32
6,C3A A24C,0.27
7,C3A A24U,0.51
8,C3A A24G,0.78
9,G2A U20A,0.88
10,G2A U20C,0.48
11,G2A U20G,0.36
12,G2C G22C,0.05
13,G2C G22A,0.15
14,G2C G22U,0.23
15,G2U G22C,0.12
16,G2U G22A,0.11
17,G2U G22U,0.11
18,G2C U43A,0.04
19,G2C U43G,0.04
20,G2C U43C,0.15
21,G2U U34A,0.04
22,G2U U34G,0.03
23,G2U U34C,0.04
